# Square brackets hold non-standard residues; d marks the D form. Ends that are not written are not given here. Nle = CCCC[C@H](N)C(=O)O
# T1: Hog Intrinsic Factor (Sus scrofa)
# T1 construct: The source of the HIF sample used in the ELISAs is not described; also called HIF; Intrinsic Factor from Sus scrofa
# T1 chain: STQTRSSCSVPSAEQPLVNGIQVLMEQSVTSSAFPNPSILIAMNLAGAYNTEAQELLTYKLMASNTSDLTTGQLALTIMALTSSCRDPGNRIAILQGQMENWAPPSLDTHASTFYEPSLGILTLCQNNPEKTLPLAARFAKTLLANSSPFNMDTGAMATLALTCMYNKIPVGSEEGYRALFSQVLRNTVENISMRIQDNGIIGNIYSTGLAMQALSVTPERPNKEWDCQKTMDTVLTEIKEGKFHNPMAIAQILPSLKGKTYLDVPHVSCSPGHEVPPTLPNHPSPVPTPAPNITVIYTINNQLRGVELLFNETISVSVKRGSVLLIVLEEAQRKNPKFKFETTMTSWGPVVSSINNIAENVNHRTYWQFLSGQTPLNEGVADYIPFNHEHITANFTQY
# T2: native Hog R-protein (glycosylated Hog TCN1 purified from crude powdered extract of hog gastric mucosa) (Sus scrofa, UniProt P17630 26-417, glycosylated, up to about 50% w/w carbohydrates)
# T2 construct: Mw about 70-92 kDa; The native preparation used for Biacore is not described further; also called native Hog TCN1; partially purified native Hog R-protein
# T2 sequence: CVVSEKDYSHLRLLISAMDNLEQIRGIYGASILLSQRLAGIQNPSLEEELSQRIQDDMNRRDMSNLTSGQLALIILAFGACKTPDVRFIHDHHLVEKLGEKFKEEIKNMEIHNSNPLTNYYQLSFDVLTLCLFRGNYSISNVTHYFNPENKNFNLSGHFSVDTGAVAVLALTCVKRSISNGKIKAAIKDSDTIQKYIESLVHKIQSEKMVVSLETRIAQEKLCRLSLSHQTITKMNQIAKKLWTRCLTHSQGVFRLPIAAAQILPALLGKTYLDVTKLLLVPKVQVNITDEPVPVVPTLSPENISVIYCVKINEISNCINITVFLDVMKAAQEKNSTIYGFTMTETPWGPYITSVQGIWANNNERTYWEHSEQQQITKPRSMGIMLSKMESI
# T3: recombinant yeast-produced non-glycosylated pig TCN1 protein (Lifespan Biosciences, LS-G23154) (Sus scrofa, UniProt P17630 26-417)
# T3 construct: Bought protein, Mw 46.3 kDa, non-glycosylated; also called rec Pig TCN1; recombinant Pig TCN1
# T3 sequence: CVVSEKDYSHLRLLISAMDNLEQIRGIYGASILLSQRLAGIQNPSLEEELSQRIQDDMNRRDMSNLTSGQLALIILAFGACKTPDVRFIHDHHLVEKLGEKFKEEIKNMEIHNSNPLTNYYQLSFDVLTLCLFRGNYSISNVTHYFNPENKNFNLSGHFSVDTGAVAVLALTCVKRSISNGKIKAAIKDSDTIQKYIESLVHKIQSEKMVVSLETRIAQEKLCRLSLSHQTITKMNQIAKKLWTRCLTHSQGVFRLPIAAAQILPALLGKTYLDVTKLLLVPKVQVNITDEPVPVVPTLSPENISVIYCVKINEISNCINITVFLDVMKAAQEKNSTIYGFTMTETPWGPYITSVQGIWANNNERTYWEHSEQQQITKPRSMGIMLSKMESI
# T4: R2 peptide (Hog TCN1 Peptide 80-89) (Sus scrofa)
# T4 construct: Synthetic peptide QDDXNRRDXS, X = norleucine; also called synthetic R2 peptide
# T4 peptide: QDD[Nle]NRRD[Nle]S
# What was measured:
# Hog Intrinsic Factor [1] = target: T1, Hog Intrinsic Factor; assay: ELISA, single point, hybridoma supernatant on plate coated with Hog Intrinsic Factor, OD 650 nm
# Method: One week after the last injection, the mice were bled, and the serum samples were tested for peptide-specific antibodies in an ELISA assay with corresponding ovalbumin conjugates and free peptides. All ELISA steps were performed at room temperature. Nunc Maxi-Sorp™ flat-bottom ELISA plates were coated with peptide or peptide-OVA conjugate at 2 and 1 μg/mL in PBS, respectively, at 50 μl per well for 1 hour. The plates were flicked dry, and the remaining binding sites were blocked by adding 200 μl per well of blocking solution (0.5% Casein in PBS containing 0.05% Tween 20) for 1 hour. Plates were washed three times with Milli-Q water containing 0.05% Tween 20, and antibody samples to be tested (serum, hybridoma supernatant, or mAb dilutions in PBS) were placed in the wells of the plates at volume 50 μl per well. After incubation for one hour, the plates were washed again as described above, and goat anti-mouse IgG-HRP conjugate diluted 1:3,000 in blocking solution was added at 50 μl per well for 1 hour. The plates were washed, and TMB substrate (Moss, Pasadena, Md.) was added at 100 μl per well for 15 minutes. Optical density of the samples at 650 nm was measured using an ELISA plate reader.
# Mice received prefusion boosts on three consecutive days with the same immunogen (10 μg/dose/animal in PBS, IP), and on the fourth day, mouse spleens were harvested and frozen. Several years later, when recombinant Pig TCN1 protein became commercially available, thawed immune splenocytes were used for hybridoma preparation according to the standard procedure described above in Example 1. Hybridoma supernatants were screened for binding both rec Pig TCN1 (LifeSpan BioSciences, LS-G23154, Seattle, Wash.) and partially purified native Hog-R-protein adsorbed on ELISA plates at 1 μg/mL in 50 μl volume per well. Several hybridomas giving positive signals on both antigens were selected. […] No cross-reactivity of the monoclonal antibodies with Hog Intrinsic Factor was observed. The hybridomas were sub-cloned by limiting dilution, expanded, and frozen.
# [2] = target: T2, native Hog R-protein (glycosylated Hog …); assay: SPR (Biacore T200), mAb immobilised on CM5 chip, antigen injected at 25-1600 nM, 1:1 fit
# Method: (§1) The binding parameters of the interaction between the anti-Hog TCN1 monoclonal antibodies and the TCN1 protein were determined in kinetics experiments using Biacore T200 equipped with Biacore T200 Control Software Version 2.0.1 (GE Healthcare Bio-Sciences, Pittsburgh, Pa.). Anti-Hog TCN1 mAbs were immobilized at 700-5,000 RU density on the carboxymethyl dextran surface in flow cells 2, 3, and 4 of the CM5 sensor chip using amino-coupling chemistry. Control antibody was immobilized in flow cell 1 for bulk effects subtraction. Recombinant Pig TCN1 (LifeSpan BioSciences, LS-G23154, Seattle, Wash.) or native Hog R-protein were injected over the surfaces with immobilized mAbs during 8 minutes at a 30 μL/min flow rate followed by 20 minutes of dissociation. The buffer blanks were run in triplicate by injection of running buffer (10 mM HEPES, 150 mM NaCl, 0.05% P-20, pH 7.4) and used to double-reference the mAb-binding data before fitting. After each cycle of binding, the surface was regenerated by two consecutive injections of 10 mM Glycine, pH 2.0 and 0.1 M Sodium Bicarbonate, pH 8.5 for 30 seconds each at a 30 μL/min flow rate. Kinetic data were collected over 25-1600 nM antigen concentrations and globally fitted to a simple 1:1 interaction model. Biacore T200 Evaluation Software Version 3.0 (GE Healthcare Bio-Sciences) was used to determine the binding parameters of the Hog TCN1 specific mAbs interaction. Kinetic parameters of the binding of the anti-Hog TCN1 monoclonal antibodies with rec Pig TCN1 and native Hog R-protein are presented in Table 5.
# [3] = target: T3, recombinant yeast-produced …; assay: as above
# Method: as §1
# [4] = target: T2, native Hog R-protein (glycosylated Hog …); assay: SPR (Biacore T200), mAb immobilised on CM5 chip, antigen injected at 25-1600 nM, 1:1 fit; native Hog R-protein (heavily glycosylated)
# Method: as §1, with “Biacore T200 Evaluation Software Version 3.0 (GE Healthcare Bio-Sciences) was used to determine the binding parameters of the Hog TCN1 specific mAbs interaction. Kinetic parameters of the binding of the anti-Hog TCN1 monoclonal antibodies with rec Pig TCN1 and native Hog R-protein are presented in Table 5.” left out
# [5] = target: T3, recombinant yeast-produced …; assay: SPR (Biacore T200), mAb immobilised on CM5 chip, antigen injected at 25-1600 nM, 1:1 fit; rec TCN1 protein (non-glycosylated, yeast-produced)
# Method: as §1, with “Biacore T200 Evaluation Software Version 3.0 (GE Healthcare Bio-Sciences) was used to determine the binding parameters of the Hog TCN1 specific mAbs interaction. Kinetic parameters of the binding of the anti-Hog TCN1 monoclonal antibodies with rec Pig TCN1 and native Hog R-protein are presented in Table 5.” left out
# [6] = target: T3, recombinant yeast-produced …; assay: SPR (Biacore T200); reference is the same mAb on native Hog R-protein
# Method: as §1, with “Biacore T200 Evaluation Software Version 3.0 (GE Healthcare Bio-Sciences) was used to determine the binding parameters of the Hog TCN1 specific mAbs interaction. Kinetic parameters of the binding of the anti-Hog TCN1 monoclonal antibodies with rec Pig TCN1 and native Hog R-protein are presented in Table 5.” left out
# Hog Intrinsic Factor [7] = target: T1, Hog Intrinsic Factor; assay: ELISA, antigen titrated on the plate, mAb at 1 µg/mL, goat anti-mouse IgG-HRP, OD 650 nm
# Method: (§2) Purified mAbs were tested in an ELISA assay for binding to corresponding peptide, partially purified native Hog-R-protein, and recombinant Pig TCN1 (Lifespan BioSciences, LS-G23154, Seattle, Wash.), and Hog Intrinsic Factor. For this purpose, 2-fold dilution of the antigens starting from 8 μg/mL in PBS were placed in the wells of ELISA plates at 50 μl per well for 1 hour at room temperature. The plates were flicked dry, blocked with 200 μl per well of blocking solution, and washed three times as described above. Monoclonal antibodies to Hog TCN1 peptides at 1 μg/mL in PBS were added at 50 μl per well. After 1-hour incubation, the plates were washed again, and goat anti-mouse IgG-HRP conjugate diluted 1:3,000 in blocking solution was added at 50 μl per well for 1 hour. The plates were washed, and TMB substrate (Moss, Pasadena, Md.) was added at 100 μl per well for 15 minutes. Plates were read at 650 nm using an ELISA plate reader.
# [8] = target: T4, R2 peptide (Hog TCN1 Peptide 80-89); assay: ELISA, antigen titrated on the plate (2-fold from 8 µg/mL), mAb at 1 µg/mL, goat anti-mouse IgG-HRP, OD 650 nm
# Method: as §2
Binder,binding result (Hog Intrinsic Factor [1]),Kd [2] [nM],koff [2] [s⁻¹],kon [2] [M⁻¹ s⁻¹],Kd [3] [nM],koff [3] [s⁻¹],kon [3] [M⁻¹ s⁻¹],Kd [4] [nM],kon [5] [M⁻¹ s⁻¹],fold higher affinity than to native Hog R-protein [6] [fold],binding result (Hog Intrinsic Factor [7]),binding result [8]
"171J 5H12 monoclonal antibody (antibody, mouse IgG1, V domains shown, Mouse IgG1, kappa, from a hybridoma (immunogen partially purified native Hog R-protein)) VH: QVQLQQSGAELVKPGASVKISCKASGYAFSSSWMNWVKQRPGKGLEWIGQIYPGDGDTNYNGKFKDKATLTADKSSNTAYMQLSSLTSEDSAVYFCARVNWDAFSYIDVWGTGTTVTVSS VL: DIKMTQSPSSMYESLGERVTITCRASQDINVYLSWFQQKPGESPKTLIYRADRLVDGVPSRFSGSGSGQDYSLTISSLEYEDVGIYYCLQYDEFPYTFGGGTKLEIK",no binding,0.17,1.9e-05,115000,–,–,–,–,–,–,–,–
"171J 3A6 monoclonal antibody (antibody, mouse IgG2b, V domains shown, Mouse IgG2b, kappa, from a hybridoma (immunogen partially purified native Hog R-protein)) VH: QVQLQQPGAELVRPGALVKLSCKASGYTFTRYWIQWVKQRPGQGLEWIGNISPNSGSVNYSEKFKGKATLTVDKPSSTAYMQLNSLTSEDSAAYYCVRSGGDYFDYWGQGTTLTVSS VL: DVLMTQTPLSLPVSLGVQASISCRSSQSILHANGNTYLEWYLQKPGQSPKLLIYKVSNRFSGVPDRFSGSGSGTDFTLYISRVEAEDLGVYYCFQGSHLPWTFGGGTKLEIK",no binding,–,–,–,2.6,6.81e-05,26000,–,–,–,–,–
"171J 9G7 monoclonal antibody (antibody, mouse IgG1, V domains shown, Mouse IgG1, kappa, from a hybridoma (immunogen partially purified native Hog R-protein)) VH: EVQLQQSGAELVKPGASVKLSCTGSGFNIEDIYIHWVKQRPEQGLEWIGRMDPANGDTVYASKFQGKATMTADTSSNTAYMQLSSLTSGDTAVYYCARVFDYWGQGTSLTVSS VL: DVVMTQTPLSLPVSLGDQASISCRSSQNLVHSNGYTYLHWYLQKPGQSPKLLIYKVSNRFSGVPDRFSGSGSGTDFTLKISRVEAEDLGVYFCSQNTHVPYTFGGGTKLEIK",no binding,–,0.00069,4830,–,–,–,143,50600,> 500,–,–

# The next lines start with the values.
binding result (Hog Intrinsic Factor [1]),Kd [2] [nM],koff [2] [s⁻¹],kon [2] [M⁻¹ s⁻¹],Kd [3] [nM],koff [3] [s⁻¹],kon [3] [M⁻¹ s⁻¹],Kd [4] [nM],kon [5] [M⁻¹ s⁻¹],fold higher affinity than to native Hog R-protein [6] [fold],binding result (Hog Intrinsic Factor [7]),binding result [8],Binder
–,–,–,–,72.3,0.0047,65000,–,–,–,no binding,binds,"171B 1G5 monoclonal antibody (antibody, V domains shown) VH: EVQLQESGPSLVKPSQTLSLTCSVTGDSITSDYWNWIRKFPGNKLEYMGYISYSGNTYYIPSLKSRISITRDTSKNQYYLQLNSVTSEDTATYYCARYDYDVYFSLDYWGQGTSVTVSS VL: DVVMTQTPLSLPVSLGDQASISCRSSQSLVHSNRNTYLHWYLQRPGQSPKLLVYKVSNRFSGVPDRFSGSGSGTDFTLKISRVEAEDLGVYFCSQSTHVPLTFGAGTKLELKR"
no binding,–,–,–,2.3,0.000165,71500,–,–,–,–,–,"171J 3F1 monoclonal antibody (antibody, mouse IgG1, V domains shown, Mouse IgG1, kappa, from a hybridoma (immunogen partially purified native Hog R-protein)) VH: EVQLQQSGPELLKPGVSVMISCRASGYTFTDYTMHWVKQSHGESLEWIGGIIPKSGTSNYNEKFKDKATLTVDKSSSTSYMELRSLTSEDSAVYYCARNYYDGGSYYFDYWGQGTTLTVSS VL: DIQMTQSPASLSASVGETVTITCRTSGNIHNFLTWFQQKQGKSPQLLVYSAETLADGVPSRFSGSGSGTQFSLRINSLQPEDFGSYFCQHFWNTPFTFGSGTKLEMK"

# Reference: patent publication US20220332803A1 (SIEMENS HEALTHCARE DIAGNOSTICS, published 2022)
